Test results reported in patent US12522647B2, “Beta-arrestin mutants” (PAUL SCHERRER INSTITUT, priority 2019, dated 2026).
Where a chain is given by its changes, count along the chain named. Numbers in names are those of the source.

B1: Triple mutant B: Arrestin-3 triple mutant containing T299A, I386A and R166A when compared to human wt arrestin-3 (protein)
chain: MGEKPGTRVFKKSSPNCKLTVYLGKRDFVDHLDKVDPVDGVVLVDPDYLKDRKVFVTLTCAFRYGREDLDVLGLSFRKDLFIATYQAFPPVPNPPRPPTRLQDRLLRKLGQHAHPFFFTIPQNLPCSVTLQPGPEDTGKACGVDFEIRAFCAKSLEEKSHKRNSVALVIRKVQFAPEKPGPQPSAETTRHFLMSDRSLHLEASLDKELYYHGEPLNVNVHVTNNSTKTVKKIKVSVRQYADICLFSTAQYKCPVAQLEQDDQVSPSSTFCKVYTITPLLSDNREKRGLALDGKLKHEDANLASSTIVKEGANKEVLGILVSYRVKVKLVVSRGGDVSVELPFVLMHPKPHDHIPLPRPQSAAPETDVPVDTNLIEFDTNYATDDDAVFEDFARLRLKGMKDDDYDDQLC
modifications: Arrestin-3 triple mutant B containing T299A, I386A and R166A
B2: Triple mutant D: Arrestin-3 triple mutant containing T299A, I386A and R393A when compared to human wt arrestin-3 (protein)
chain: B1 chain with A166R, R393A
modifications: Arrestin-3 triple mutant D containing T299A, I386A and R393A
B3: Triple mutant C: Arrestin-3 triple mutant containing T299A, I386A and D298A when compared to human wt arrestin-3 (protein)
chain: B1 chain with A166R, D298A
modifications: Arrestin-3 triple mutant C containing T299A, I386A and D298A

Target: T1, β2-adrenergic receptor (β2AR, B2AR) (Homo sapiens, UniProt P07550)
T1 construct: expressed in transfected cells; host or cells: HEK293 cells (transient co-transfection, Lipofectamine 2000)
Test: BRET arrestin recruitment assay: isoproterenol-induced recruitment of GFP-arrestin-3 WT or mutants to RLuc8-β2AR
Type: cell-based
Settings: for Potency (pEC50 ± Std. error): isoproterenol concentration giving half-maximal arrestin recruitment to β2AR, BRET AUC over 19.5 min, isoproterenol 10 pM to 10 μM; for Recruitment to B2AR compared to wild-type arrestin-3 (in words): isoproterenol concentration-response curves, FIG. 1; for Efficacy (Emax ± Std. error) in %, normalized to WT: maximal isoproterenol-induced recruitment to β2AR, WT arrestin-3 at 10 μM isoproterenol set to 100%
Protocol: […] were seeded onto poly-L-lysine coated, white, 96-well plates at a density of ˜25,000 cells per well. […] The day following transfection, cell culture medium was exchanged with fresh medium. Another 24 h later cell culture medium was replaced with assay buffer (HBSS+20 mM HEPES and pH 7.4) and cells were treated with 5 μM cell-permeable substrate Coelenterazine 400A (Cayman Chemical), which is catalysed by the BRET donor RLuc8, resulting in the emission of light (λmax=410 nm). BRET measurement was performed in a plate reader PheraStar FSX (BMG Biotech) with the optical module (BRET2 plus, 515-30, 410-80). At t=4.5 min, isoproterenol (Tocris Bioscience) was added at increasing concentrations to the cells (from 10 pM to 10 μM). BRET ratio was determined by calculating the ratio of the light intensity emitted by the GFP (515 nm) over the light intensity emitted by the Rluc8/Coelenterazine 400A (410 nm). […] The coefficient of determination R^2 can range between 0 and 1 and represents the quality of the fitting between the experimental values (marks, FIG. 1) and the non-linear regression analysis (curves, FIG. 1). Experiments were performed in technical duplicates in two independent experiments.
An arrestin recruitment assay based on Bioluminescence Resonance Energy Transfer (BRET) was performed to compare the recruitment efficiencies of arrestin-3 double and triple mutants with wild-type arrestin-3 towards B2AR.
The recruitment responses can be defined by two pharmacological parameters: potency and efficacy. In general, efficacy (Emax) is a measure of the maximum effect that is expected from a compound/drug. […] Potency is often given as the EC50 value, which defines the amount of compound required to produce 50% of that compound's maximal effect. For simpler illustration, the pEC50 value, which is the negative logarithm of the EC50 in molar concentrations, is shown.
The potency (pEC50) represents the molar concentration of isoproterenol necessary to obtain half of the total recruitment of arrestin-3 or efficiency (Emax) for each arrestin.

Molecule	Potency (pEC50 ± Std. error)	Recruitment to B2AR compared to wild-type arrestin-3 (in words)	Efficacy (Emax ± Std. error) in %, normalized to WT	EC50 (converted from pEC50, isoproterenol-induced recruitment to β2AR, read-out: Potency expressed as isoproterenol concentration)
Double mutant A: Arrestin-3 double mutant containing T299A and I386A when compared to human wt arrestin-3	7.1±0.03	increased recruitment efficacy	131.5±1.82%	
B1	7.3±0.06	increased recruitment efficacy	103.0 ± 2.53%	50.1 nM
B2	7.2 ± 0.03		89.2 ± 1.23%	
B3	7.2 ± 0.04		108.9 ± 1.84%	
